Laboratory results published in patent publication US20250313632A1.
Like-named read-outs stand apart in the source and are kept apart here.

Tests used:
[1] = biological target: human B7-H3 expressed on A375 tumor cells (human) (UniProt Q5ZPR3); test: flow cytometry on A375 cells, MFI(PE); unit from the axis Conc (nM)
[2] = biological target: human B7-H3 expressed on A375 tumor cells (human) (UniProt Q5ZPR3); test: as above; remark: listed apart in the source
[3] = biological target: human B7-H3 protein (human) (UniProt Q5ZPR3); test: Octet (BLI) epitope binning on captured human B7-H3; competitor CA84D
[4] = biological target: human B7-H3 protein (human) (UniProt Q5ZPR3); test: Octet (BLI) epitope binning on captured human B7-H3; competitor 72D1D11
[5] = biological target: human B7-H3 protein (human) (UniProt Q5ZPR3); test: Octet (BLI) epitope binning on captured human B7-H3; competitor AHP05562
[6] = biological target: human B7-H3 protein (human) (UniProt Q5ZPR3); test: Octet (BLI) epitope binning on captured human B7-H3; competitor AHP06345
[7] = biological target: human B7-H3 expressed on A375 tumor cells (human) (UniProt Q5ZPR3); test: flow cytometry on A375 cells, MFI(PE); unit from the axis Conc (nM); remark: listed apart in the source
[8] = biological target: human B7-H3 (4Ig) protein (his tag) (human) (UniProt Q5ZPR3); test: SPR (Biacore T200), antibody captured on Protein A chip, B7-H3 injected, 1:1 model

B1: 72D1D11-z1 (antibody, V domains shown)
VH: QVQLVQSGSELKKPGASVKVSCKASGYTFTNLGLNWVRQAPGQGLEWMGWINTAGGQPTYAEDFKGRFVFSLDTSVSTAYLQISSLKAEDTAVYYCARDDGYYYTMDYWGQGTTVTVSS
VL: DIVMTQTPLSLPVTPGEPASISCRSSQSLVHSNGKTYLHWYLQKPGQSPQLLIYKVSNRFSGVPDRFSGSGSGTDFTLKISRVEAEDVGVYYCSQSTHVPWTFGGGTKLEIK
Binder B1 has an EC50 [1] of 0.63 nM.

B2: 72D1D11-z14 (antibody, V domains shown)
VH: QIQLVQSGSELKKPGASVKVSCKASGYTFTNLGLNWVKQAPGQGLKWMGWINTAGGQPTYAEDFKGRCVFSLDTSVSTAYLQISSLKAEDTAVYFCARDDGYYYTMDYWGQGTTVTVSS
VL: DIVMTQTPLSLPVTPGEPASISCRSSQSLVHSNGKTYLHWYLQKPGQSPQLLIYKVSNRFSGVPDRFSGSGSGTDFTLKISRVEAEDVGVYFCSQSTHVPWTFGGGTKLEIK
In the case of B2, the EC50 [2] is reported as 0.57 nM.

B3: 72D1D11-z11 (antibody, V domains shown)
VH: QVQLVQSGSELKKPGASVKVSCKASGYTFTNLGLNWVRQAPGQGLKWMGWINTAGGQPTYAEDFKGRCVFSLDTSVSTAYLQISSLKAEDTAVYFCARDDGYYYTMDYWGQGTTVTVSS
VL: DIVMTQSPLSLPVTPGEPASISCRSSQSLVHSNGKTYLHWYLQKPGQSPQLLIYKVSNRFSGVPDRFSGSGSGTDFTLKISRVEAEDVGVYYCSQSTHVPWTFGGGTKLEIK
For B3, the EC50 [2] was 0.36 nM.

B4: 72D1D11-z7 (antibody, V domains shown)
VH: QVQLVQSGSELKKPGASVKVSCKASGYTFTNLGLNWVRQAPGQGLEWMGWINTAGGQPTYAEDFKGRCVFSLDTSVSTAYLQISSLKAEDTAVYYCARDDGYYYTMDYWGQGTTVTVSS
VL: DIVMTQSPLSLPVTPGEPASISCRSSQSLVHSNGKTYLHWYLQKPGQSPQLLIYKVSNRFSGVPDRFSGSGSGTDFTLKISRVEAEDVGVYYCSQSTHVPWTFGGGTKLEIK
B4 gave an EC50 [1] of 0.52 nM.

B5: 72D1D11-z16 (antibody, V domains shown)
VH: QIQLVQSGSELKKPGASVKVSCKASGYTFTNLGLNWVKQAPGQGLKWMGWINTAGGQPTYAEDFKGRCVFSLDTSVSTAYLQISSLKAEDTAVYFCARDDGYYYTMDYWGQGTTVTVSS
VL: DIVMTQSPLSLPVTPGEPASISCRSSQSLVHSNGKTYLHWYLQKPGQSPQLLIYKVSNRFSGVPDRFSGSGSGTDFTLKISRVEAEDVGVYFCSQSTHVPWTFGGGTKLEIK
B5 was tested, and the EC50 [2] was 0.32 nM.

B6: 72D1D11-z12 (antibody, V domains shown)
VH: QVQLVQSGSELKKPGASVKVSCKASGYTFTNLGLNWVRQAPGQGLKWMGWINTAGGQPTYAEDFKGRCVFSLDTSVSTAYLQISSLKAEDTAVYFCARDDGYYYTMDYWGQGTTVTVSS
VL: DIVMTQSPLSLPVTPGEPASISCRSSQSLVHSNGKTYLHWYLQKPGQSPQLLIYKVSNRFSGVPDRFSGSGSGTDFTLKISRVEAEDVGVYFCSQSTHVPWTFGGGTKLEIK
Binder B6 has an EC50 [2] of 0.35 nM.

B7: 72D1D11-z6 (antibody, V domains shown)
VH: QVQLVQSGSELKKPGASVKVSCKASGYTFTNLGLNWVRQAPGQGLEWMGWINTAGGQPTYAEDFKGRCVFSLDTSVSTAYLQISSLKAEDTAVYYCARDDGYYYTMDYWGQGTTVTVSS
VL: DIVMTQTPLSLPVTPGEPASISCRSSQSLVHSNGKTYLHWYLQKPGQSPQLLIYKVSNRFSGVPDRFSGSGSGTDFTLKISRVEAEDVGVYFCSQSTHVPWTFGGGTKLEIK
Binder B7 has an EC50 [1] of 0.54 nM.

B8: 72D1D11-z5 (antibody, V domains shown)
VH: QVQLVQSGSELKKPGASVKVSCKASGYTFTNLGLNWVRQAPGQGLEWMGWINTAGGQPTYAEDFKGRCVFSLDTSVSTAYLQISSLKAEDTAVYYCARDDGYYYTMDYWGQGTTVTVSS
VL: DIVMTQTPLSLPVTPGEPASISCRSSQSLVHSNGKTYLHWYLQKPGQSPQLLIYKVSNRFSGVPDRFSGSGSGTDFTLKISRVEAEDVGVYYCSQSTHVPWTFGGGTKLEIK
B8 gave an EC50 [1] of 0.51 nM.

B9: 72D1D11-z9 (antibody, V domains shown)
VH: QVQLVQSGSELKKPGASVKVSCKASGYTFTNLGLNWVRQAPGQGLKWMGWINTAGGQPTYAEDFKGRCVFSLDTSVSTAYLQISSLKAEDTAVYFCARDDGYYYTMDYWGQGTTVTVSS
VL: DIVMTQTPLSLPVTPGEPASISCRSSQSLVHSNGKTYLHWYLQKPGQSPQLLIYKVSNRFSGVPDRFSGSGSGTDFTLKISRVEAEDVGVYYCSQSTHVPWTFGGGTKLEIK
With B9 the EC50 [2] was 0.51 nM.

B10: 72D1D11-z4 (antibody, V domains shown)
VH: QVQLVQSGSELKKPGASVKVSCKASGYTFTNLGLNWVRQAPGQGLEWMGWINTAGGQPTYAEDFKGRFVFSLDTSVSTAYLQISSLKAEDTAVYYCARDDGYYYTMDYWGQGTTVTVSS
VL: DIVMTQSPLSLPVTPGEPASISCRSSQSLVHSNGKTYLHWYLQKPGQSPQLLIYKVSNRFSGVPDRFSGSGSGTDFTLKISRVEAEDVGVYFCSQSTHVPWTFGGGTKLEIK
For B10, the EC50 [1] was 0.49 nM.

B11: 72D1D11-z2 (antibody, V domains shown)
VH: QVQLVQSGSELKKPGASVKVSCKASGYTFTNLGLNWVRQAPGQGLEWMGWINTAGGQPTYAEDFKGRFVFSLDTSVSTAYLQISSLKAEDTAVYYCARDDGYYYTMDYWGQGTTVTVSS
VL: DIVMTQTPLSLPVTPGEPASISCRSSQSLVHSNGKTYLHWYLQKPGQSPQLLIYKVSNRFSGVPDRFSGSGSGTDFTLKISRVEAEDVGVYFCSQSTHVPWTFGGGTKLEIK
For B11, the EC50 [1] was 0.52 nM.

B12: 72D1D11-z13 (antibody, V domains shown)
VH: QIQLVQSGSELKKPGASVKVSCKASGYTFTNLGLNWVKQAPGQGLKWMGWINTAGGQPTYAEDFKGRCVFSLDTSVSTAYLQISSLKAEDTAVYFCARDDGYYYTMDYWGQGTTVTVSS
VL: DIVMTQTPLSLPVTPGEPASISCRSSQSLVHSNGKTYLHWYLQKPGQSPQLLIYKVSNRFSGVPDRFSGSGSGTDFTLKISRVEAEDVGVYYCSQSTHVPWTFGGGTKLEIK
With B12 the EC50 [2] was 0.36 nM.

B13: 72D1D11-z15 (antibody, V domains shown)
VH: QIQLVQSGSELKKPGASVKVSCKASGYTFTNLGLNWVKQAPGQGLKWMGWINTAGGQPTYAEDFKGRCVFSLDTSVSTAYLQISSLKAEDTAVYFCARDDGYYYTMDYWGQGTTVTVSS
VL: DIVMTQSPLSLPVTPGEPASISCRSSQSLVHSNGKTYLHWYLQKPGQSPQLLIYKVSNRFSGVPDRFSGSGSGTDFTLKISRVEAEDVGVYYCSQSTHVPWTFGGGTKLEIK
B13 showed an EC50 [2] of 0.47 nM.

B14: 72D1D11-z8 (antibody, V domains shown)
VH: QVQLVQSGSELKKPGASVKVSCKASGYTFTNLGLNWVRQAPGQGLEWMGWINTAGGQPTYAEDFKGRCVFSLDTSVSTAYLQISSLKAEDTAVYYCARDDGYYYTMDYWGQGTTVTVSS
VL: DIVMTQSPLSLPVTPGEPASISCRSSQSLVHSNGKTYLHWYLQKPGQSPQLLIYKVSNRFSGVPDRFSGSGSGTDFTLKISRVEAEDVGVYFCSQSTHVPWTFGGGTKLEIK
B14 was tested, and the EC50 [1] was 0.46 nM.

B15: 227E12D1 (antibody, V domains shown)
VH: EVKLVESGGGLVKPGGSLKLSCAASGFTFSSYGMSWVRQTPEKRLEWVATISGGGTYTYYPDSVKGRFTISRDNAKNNLYLQMSSLRSDDTALYYCARHEGLVMDYWGQGTSVTVSS
VL: DIQMTQSPASLSASVGETVTITCRASENIYSYLAWYQQKQGKSPQLVVYNAKTLAEGVPSRFSGSGSGTQFSLKINSLQPEDFGTYYCQHHYGPPPYTFGGGTKLEIK
B15 showed an inhibition ratio [3] of -5.46%, an inhibition ratio [4] of 97.1% and an inhibition ratio [5] of 90%. For the same binder, the inhibition ratio [6] was -5.22%, the EC50 [7] was 0.093 nM and the Kd [8] was 0.619 nM. For the same binder, the koff [8] was 0.000368 s⁻¹ and the kon [8] was 595000 M⁻¹ s⁻¹.

B16: 126C10B10 (antibody, V domains shown)
VH: GVQLQQSGAELVKPGASVKLSCTGSGFNIKDPYIHWVKQRPEQGLEWIGRIDPANGNTKYGPRFQGRATMTADTSSNTANLQLSSLTSEDTAVYYCTTWNYYLSRGFDYWGQGTTLTVSS
VL: QIVLTQSPAIMSASPGEKVTMTCSARSSVTYMHWYQQKSGTSPKRWIYDTSKLASGVPARFSGSGSGTSYSLTISSMEAEDAATYYCQQWTSNPLTFGAGTKLELK
Work on B16 yielded an inhibition ratio [3] of -9.58%, an inhibition ratio [4] of 96.6% and an inhibition ratio [5] of -22.2%. For the same binder, the inhibition ratio [6] was -5.98%, the EC50 [7] was 0.22 nM and the Kd [8] was 0.837 nM. For the same binder, the koff [8] was 0.000367 s⁻¹ and the kon [8] was 438000 M⁻¹ s⁻¹.

B17: 106A5B3 (antibody, V domains shown)
VH: EVQLVESGGDLVKPGGSLKLSCAASGFTFSSYGMSWVRQTPDKRLEWVATISSGGSYIYYPDSMKGRFTISRDNAKNTLYLQMSSLQSEDTAIYYCASDYGSRYFDYWGQGTTLTVSS
VL: QIVLTQSPAIMSASPGEKVTMTCSASSSVIYMSWYKQKPGSSPRLLIYDTSNLASGVPVRFSGSGSGTSYSLTISRMEAEDAATYYCQQWSSYPRTFGGGTKLEIK
B17 was tested, and the inhibition ratio [3] was -15.8%, the inhibition ratio [4] was 96.8% and the inhibition ratio [5] was 89.6%. For the same binder, the inhibition ratio [6] was -13%, the EC50 [7] was 0.1 nM and the Kd [8] was 0.476 nM. For the same binder, the koff [8] was 0.000396 s⁻¹ and the kon [8] was 833000 M⁻¹ s⁻¹.

B18: 216E7A9 (antibody, V domains shown)
VH: DVQLVESGGGLVQPGGSRKLSCAASGFTFSSFGMHWVRQAPEKGLEWVAYISSGSSTIYYADTVRGRFTISRDNPKNTLFLQMTSLRSEDTAMYYCARGGDYYYALDYWGQGTSVTVSS
VL: DIQMTQSPASLSVSVGETVTITCRASENIHSNLEWYQQKQGKSPQLLVYAATNLADGVPSRFSGSGSGTQYSLKINSLQSEDFGSYYCQHFWGTPFTFGSGTKLEIK
With B18 the inhibition ratio [3] was 5.28%, the inhibition ratio [4] was 98% and the inhibition ratio [5] was 92.3%. The inhibition ratio [6] was 1.99%, the EC50 [7] was 0.08 nM and the Kd [8] was 2.49 nM. The koff [8] was 0.000824 s⁻¹ and the kon [8] was 331000 M⁻¹ s⁻¹.
